Values of other authors in patent publication US20130252257A1, “QUANTIFICATION OF CIRCULATING STEM AND PROGENITOR CELLS AS A MEANS OF ASSESSING EFFICACY OF NATUROPATHIC INTERVENTIONS” (Creative Medical Health, Inc., priority 2011, published 2013).
Like-named read-outs stand apart in the source and are kept apart here.

Columns and labels:
[1] = system: endothelial responsiveness
circulating EPC = conditions: in vivo
large anterior wall AMI = conditions: 41 patients with large anterior wall AMI
myocardial infarct = conditions: 114 patients, 56 treated and 58 control
[2] = system: ST-elevation myocardial infarction; conditions: 6 days of G-CSF at 10 μg/kg
[3] = system: endothelial progenitor cells (EPC); conditions: in addition to mobilizing HSC

Question: Which endothelial responsiveness ([1]; healthy volunteers) does the source give for “growth hormone: growth hormone, used in antiaging medicine; clinically-applicable mobilizer” here?
Answer: improve endothelial responsiveness

Question: And the endothelial responsiveness ([1]; patients with congestive heart failure)?
Answer: improve endothelial responsiveness

Question: With `CC(C)c1nc(N(C)S(C)(=O)=O)nc(-c2ccc(F)cc2)c1/C=C/[C@@H](O)C[C@@H](O)CC(=O)O` [Crestor] as the molecule, how does the “circulating EPC levels” value (circulating EPC) read?
Answer: increase circulating EPC levels

B1: G-CSF: Granulocyte colony stimulating factor, used clinically for mobilization of hematopoietic stem cells (protein, UniProt P09919 31-207, looked up)
Granulocyte …: TPLGPASSLPQSFLLKCLEQVRKIQGDGAALQEKLVSECATYKLCHPEELVLLGHSLGIPWAPLSSCPSQALQLAGCLSQLHSGLFLYQGLLQALEGISPELGPTLDTLQLDVADFATTIWQQMEELGMAPALQPTQGAMPAFASAFQRRAGGVLVASHLQSFLEVSYRVLRHLAQP
Question: Which “left ventricle ejection fraction (LVEF)” value (large anterior wall AMI) does the source give for B1 here?
Answer: improvement

Question: And the pathological remodeling (large anterior wall AMI)?
Answer: diminished pathological remodeling

Question: And the “infarct size, left ventricular function, or coronary restenosis” value (myocardial infarct)?
Answer: no influence

Question: What about the ejection fraction ([2]; in comparison to controls) of the same molecule?
Answer: Statistically significant improvements

Question: What about the pathological remodeling ([2]; in comparison to controls) of the same molecule?
Answer: inhibition of pathological remodeling

Question: And the “myocardial wall at the area of infarct” value ([2]; four months after infarct, versus controls, sustained over a year)?
Answer: thicker myocardial wall

Question: And the “mobilization of EPC” value [3]?
Answer: stimulates mobilization of EPC
